Source: patent US20240059766A1

Key:
[1] = target: T1, Tau(pS404) peptide (human); experiment: competition ELISA, TauS404 coated at 1 ug/mL, VY014 titrated; peptide 12 at 1 µg/mL as competitor in solution
T1 sequence (peptide, only S404 phosphorylated (pS404)): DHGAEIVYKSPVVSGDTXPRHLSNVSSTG

[2] = target: T1, Tau(pS404) peptide (human); experiment: direct ELISA, TauS404 coated at 1 ug/mL, antibody titrated
[3] = target: T1, Tau(pS404) peptide (human); experiment: competition ELISA, TauS404 coated at 1 ug/mL, VY014 titrated; AC04 peptide at 1 µg/mL as competitor in solution

EC50 (read off the curve) [1]: 0.2 nM
EC50 (read off the curve) [2]: 0.06 nM
EC50 (read off the curve) [3]: 0.08 nM
B1: VY014 (antibody, V domains shown)
VH: EVQLVESGGGLVQPGGSLRLSCAASGFTFNNYDMHWVRQAAGKGLEWVSTIGAAGDTYYPGSVKGRFIISRENAKNSLYLQMNSLRAGDTAVYYCARAGETLEGATIGYYYGMDVWGQGTTVTVSS
VL: DILMTQSPLSLPVTPGEPASISCRSSQSLLHSNGYNYLDWYLQKPGQSPQLLIYLGSNRASGVPDRFSGSGSGTDFTLKFSRVEAEDVGLYYCMQALQIPLTFGGGTKVEIK
